Results: patent US9889179B2, “FGF-18 compound dosing regimen” (MERCK PATENT GMBH, priority 2014, dated 2018)
Entries after “also recorded” stand apart in the source; their conditions may differ. Where two headings read alike, the source gives them in different places.

Tests used:
[1] = test system: medial meniscal tear in the right knee joint; assay type: in vivo, Male Lewis rats; details: for swelling scores versus vehicle controls: days 24-29, 31, 36-43
Method: Male Lewis rats underwent surgery to induce a medial meniscal tear in the right knee joint. Animals were dosed i.a. with FGF-18 (10 μg/joint) on days 21, 28, and 35 and dosed orally with diclofenac (either 1 mg/kg or 3 mg/kg) or vehicle on days 21-23, 28-30, and 35-37, then terminated on day 42 or day 63. Serum was collected and evaluated for alpha 2 macroglobulin (α2MG) levels on days −3, 21, 42, and 63. α2MG is an inflammation serum biomarker. The link between α2MG and inflammation has already been shown (Kuribayashi et al., 2013).

[2] = test system: OA symptoms; details: cited from earlier work
[3] = test system: RA; details: human, in vivo; cited from earlier work
[4] = test system: Primary articular porcine chondrocytes; test: Porcine chondrocyte proliferation with or without IL1α challenge (Example 4); assay type: cell-based, pig; details: 100 ng/mL; for increase in the cell number versus control (medium, no IL1α): 8 days of culture; for stimulation of proliferation versus control (medium, IL1α 10 ng/mL): 8 days
Method: Porcine chondrocytes were isolated from the cartilage of a femoral head of a pig hip (pigs were approximately one year old). After dissection of the joints, the cartilage was harvested and digested for 45 minutes with collagenase 0.25% ( 1/10 dilution of collagenase NBG4 2.5% in HAM's F12) at room temperature. The loosened cells were discarded and the cartilage further digested overnight with collagenase 0.1% ( 1/25 dilution of collagenase NBG4 2.5% in HAM's F12) at 37° C. to extract the chondrocytes. For this study, the chondrocytes were cultured in a monolayer.
Primary articular porcine chondrocytes were stimulated or not with 10 ng/mL IL1α and were either treated immediately or 6 hours later with anakinra 100 ng/mL and/or trFGF-18 100 ng/mL. Each condition was performed in 4 or 6-plicate. As a control, cells were also cultured with anakinra alone, trFGF-18 alone or in the absence of any treatment (medium).
Pre-culture: After cell isolation porcine chondrocytes were inoculated at 20,000 cells/cm^2 and cultivated for one week in complete HAM's F12. Cells were then harvested with accutase, counted and used as described below.
For cells treated directly with anakinra: Chondrocytes were inoculated in a 24-well plate at 15,000 cells/well in 0.5 mL of complete HAM's F12. Then 0.25 mL of trFGF-18 400 ng/mL and/or 0.25 mL of anakinra 400 ng/mL were added to the cells. In the challenged samples, 10 μL of IL1α at 1,000 ng/mL were also added to the cells. trFGF-18, anakinra and IL1α were all diluted in complete HAM's F12. The final volume in the culture well was adjusted to 1 mL with complete HAM's F12. Final concentrations were 10 ng/mL IL1α, 100 ng/mL trFGF-18 and 100 ng/mL anakinra and the total culture time was eight days. A complete medium change was performed after four days. N=4.
For cells treated with anakinra and trFGF-18 6 hours after the IL1α challenge: Chondrocytes were inoculated in a 24-well plate at 15,000 cells/well in 1 mL of complete HAM's F12 containing or not containing IL1α 10 ng/mL. After 6 hours the medium was removed and replaced with 0.25 mL trFGF-18 400 ng/mL and/or 0.25 mL of anakinra 400 ng/mL. In the challenged samples, 0.25 mL of IL1α at 40 ng/mL was also added to the cells. trFGF-18, anakinra and IL1α were all diluted in complete HAM's F12. The final volume in the culture well was adjusted to 1 mL with complete HAM's F12. Final concentrations were 10 ng/mL IL1α, 100 ng/mL trFGF-18 and 100 ng/mL anakinra and the total culture time was eight days. A complete medium change was performed after four days. N=6.
After eight days of culture, cells were harvested with accutase and resulting cell suspensions were analyzed for cell concentration and cell viability with a ViCell™ cell analyzer (from Beckman Coulter). […]

[5] = test system: ACLT+tMx model of instability-induced OA; test: ACLT+tMx model of instability-induced OA, cartilage matrix deposition by Safranin-O (Example 1); assay type: in vivo, male Lewis rats
Method: The anterior cruciate ligament transection with resection of the medial meniscus (ACLT+tMx) model of instability-induced OA was performed in male Lewis rats 10-15 weeks of age. Briefly, under anesthesia with Isoflurane, the joint capsule of the right knee of each rat was opened, the anterior cruciate and the meniscus fixating ligaments were sharply transected, the meniscus was removed and the capsule, muscles and skin closed by sutures. Animals were randomly allocated into 10 groups of n=10 each. The following dosages were investigated: 0, 0.3, 1, 3 and 10 μg per intra-articular injection. Groups 1-5 received one cycle of three single injections at weekly intervals, group 6-10 three single injections at monthly intervals. Intra-articular treatment was started three weeks post-surgery. At this time pathophysiological changes are already mainifest, e.g., cartilage matrix loss. Animals were euthanized 17 weeks after surgery and joints were investigated.

[6] = test system: medial meniscal tear in the right knee joint; assay type: in vivo, Male Lewis rats
Method: After the sacrifice, the right knee was removed and decalcified in 5% formic acid for 4-6 d before cutting in half in the frontal plane and embedding in paraffin wax. Three sections were cut in 200 μm steps, stained with toluidine blue, and analyzed using ImagePro Plus™ software (Media Cybernetics). In scoring the three sections of the joint, the worst-case scenario for the two halves on each slide was determined for the cartilage lesion as the cartilage degeneration width (μm). This reflects the areas of tibial cartilage lesion in which both chondrocyte and proteoglycan loss extend 50% of the cartilage thickness. The measurement was taken over the area of greatest lesion severity in each of the three zones across the tibial surface.
A treatment group Mean±SE for each score and measurement was determined.
Data was analyzed using a one-way analysis of variance (1-way ANOVA) or Kruskal-Wallis test (non-parametric), along with an appropriate multiple comparison post-test. Right knee caliper measurements were compared to left using a Student's t-test. Unless indicated, Bolder BioPATH, Inc. performs statistical analysis on raw (untransformed) data only. […] Significance for all tests was set at p≦0.05. Comparisons were made between each group and the vehicle control group, as well as between pairs
Male Lewis rats underwent surgery (under anesthesia with Isoflurane) to induce a medial meniscal tear in the right knee joint. Animals were dosed IA with vehicle or FGF-18 on one of two different regimens (see table below), then terminated on day 105. Knees had caliper measurements taken at baseline and days 21, 42, 56, 84, and 105. Serum was evaluated for α2 macroglobulin levels at baseline and on days 21, and 105, as well as one week after the final dose (day 42 or 84). Right knees were collected for histopathology evaluation.

[7] = test system: rat model of OA (ACLT with tMx); test: ACLT+tMx rat model of OA, intracycle dosing frequency of sprifermin (Example 6); assay type: in vivo, male Lister Hooded Rats
Method: The goal of this study was to evaluate the effect of different intracycle dosing frequency of the same total dosage (3×1 μg) of sprifermin on cartilage volume in a rat model of OA. The anterior cruciate ligament transection (ACLT) with resection of the medial meniscus (tMx) was performed as disclosed in Example 1. Joints from male Lister Hooded Rats (200-260 g, Charles River) were used in this study. Animals were euthanized 18 weeks post-surgery.
The changes in the joint are related to clinical assessments in OA (cartilage loss, osteophytes, subchondral sclerosis). One μg sprifermin in saline was injected three times either weekly, every 2nd, every 3rd, every 4th or every 5th week and compared to appropriate vehicle groups. Body weight, joint diameters and clinical health scores were investigated weekly.

[8] = test system: full-thickness defect in the articular cartilage of the trochlear groove; assay type: in vivo, New Zealand White rabbits
Source text: 60 adult male, naïve, New Zealand White rabbits were used for this study. Animals were approximately 3-4 months of age. Rabbits underwent surgery for creation of the cartilage defect right knee. A 2 mm by 6 mm full-thickness defect was made in the articular cartilage of the trochlear groove. The microfracture was created using 18 gauge needles. Two 3 mm deep microfractures were made through the subchondral bone at the base of the defect, one proximally and one distally. Each microfracture hole was approximately 1.5 mm in diameter and the holes separated by 2 mm. The experiment consisted of the following six treatment groups, with 10 animals in each group for a total of 60 rabbits (Table 2). Rabbits in Groups 3, 4, 5 and 6 were treated with intra-articular rhFGF-18 in either one cycle of three weekly injections of 100 μg of rhFGF-18 (Group 3 and 5) or one cycle of three monthly injections of 100 μg of rhFGF-18 (Group 4 and 6). All animals were euthanized and necropsied 6 months after surgery. [table]

For `O=C(O)Cc1ccccc1Nc1c(Cl)cccc1Cl` [diclofenac, 2-(2,6-dichloranilino) phenylacetic acid], the knee caliper measurements ([1]; diclofenac 1 mg/kg oral with FGF-18 i.a., any other time point) was “not significantly affected”, the knee caliper measurements ([1]; diclofenac 1 mg/kg oral with FGF-18 i.a., day 42) was “significantly reduced” and the “swelling scores versus vehicle controls” value ([1]; diclofenac 1 mg/kg oral with FGF-18 i.a.) was “significantly reduced”. For the same molecule, the knee caliper measurements ([1]; diclofenac 3 mg/kg oral with FGF-18 i.a., any other time point) was “not significantly affected”, the knee caliper measurements ([1]; diclofenac 3 mg/kg oral with FGF-18 i.a., day 42) was “significantly reduced” and the “swelling scores versus vehicle controls” value ([1]; diclofenac 3 mg/kg oral with FGF-18 i.a.) was “significantly reduced”. For the same molecule, the “serum α2MG levels, all groups” value ([1]; diclofenac 1 and 3 mg/kg with FGF-18, day 63) was “similar” and the “time for which effects on knee swelling were evident after the final dose of diclofenac” value ([1]; diclofenac 1 or 3 mg/kg with FGF-18) was “approximately one week”.

For “anakinra: recombinant, nonglycosylated form of human interleukin-1 receptor antagonist (IL-1Ra), SEQ ID NO: 3”, the pain versus placebo ([2]; anakinra 150 mg) is given as “tendency toward pain reduction”, the “improvements in OA symptoms compared with placebo” value ([2]; anakinra therapy) is given as “not significantly associated with improvements” and the “joint damage in RA patients” value [3] is given as “reduction in frequency and severity of joint damage”. The “pain in RA patients” value [3] was “pain reduction”.

B1: trFGF-18: recombinant truncated form of human FGF-18 (170 amino acids, SEQ ID NO: 2), produced in E. coli (protein)
chain: MEENVDFRIHVENQTRARDDVSRKQLRLYQLYSRTSGKHIQVLGRRISARGEDGDKYAQLLVETDTFGSQVRIKGKETEFYLCMNRKGKLVGKPDGTSKECVFIEKVLENNYTALMSAKYSGWYVGFTKKGRPRKGPKTRENQQDVHFMKRYPKGQPELQKPFKYTTVTK
modifications: Recombinant truncated FGF-18(trFGF-18)
For B1, the “increase in the cell number versus control (medium, no IL1α)” value ([4]; first experiment (direct treatment, N=4)) was 11.25 fold, the “increase in the cell number versus control (medium, no IL1α)” value ([4]; second experiment (6-hour delay, N=6)) was 7.75 fold and the “stimulation of proliferation versus control (medium, IL1α 10 ng/mL)” value ([4]; first experiment (direct treatment)) was 2.38 fold. For the same molecule, the “stimulation of proliferation versus control (medium, IL1α 10 ng/mL)” value ([4]; second experiment (6-hour delay)) was 2.44 fold, the “dose at which neo-formation of cartilaginous tissue became significant” value ([5]; lateral tibia, independently of the injection regime (three i.a. injections weekly or monthly), 17 weeks after surgery) was 1 μg/joint and the “dose at which neo-formation of cartilaginous tissue became significant” value ([5]; medial tibia, one-monthly regimen, three i.a. injections) was 0.3 μg/joint. The “dose at which neo-formation of cartilaginous tissue became significant” value ([5]; medial tibia, one-weekly regimen, three i.a. injections) was 1 μg/joint, the “extent of injury over the tibial surface (collagen damage), histopathology” value ([6]; 10 μg IA, day 105) was “generally increased” and the “severity of tibial injury, histopathology” value ([6]; 10 μg IA, day 105) was “reducing its severity”. For the same molecule, the “structural benefit (total joint score, substantial tibial cartilage degeneration width)” value ([6]; monthly injection scheme versus other regimens, 10 μg IA) was “highest”, the overall morphology ([6]; three injections once monthly (Group 5; days 21, 49, 77)) was “best overall morphology” and the “cartilage denudation, stereology” value ([7]; 3 x 1 μg/joint, 18 weeks post-surgery) was “prevented more or less complete cartilage denudation”. The “cartilage volume on medial tibia” value ([7]; One μg/joint once every 3rd week, three injections in total, listed as rhFGF-18) was “statistically significant difference over saline; also recorded: most beneficial structural outcome”, the “cartilage volume compared to placebo” value ([7]; all groups treated (weekly to every 5th week)) was “higher cartilage volume values” and the joint diameters ([7]; between injections every 2nd, 3rd or 4th week) was “No significant differences”. The “AUC of joint diameters” value ([7]; injected every 5th week) was “the same as with saline injections”, the “joint diameters (AUC of joint diameter difference)” value ([7]; injections in week 3, 4 and 5 versus week 3, 8 and 13) was “significantly higher” and the body weight gain ([7]; intra-articular injections, 3 x 1 μg) was “no influence”. The “animals with intercondylar groove filled with cartilage” value ([8]; Group 4: no microfracture, monthly x3, nearly normal to slightly roughened or granular cartilage) was 6/9, the “animals with intercondylar groove filled” value ([8]; Group 6: microfracture, monthly x3, finely granular to granular cartilage) was 3/10 and the “animals with groove 50% filled to nearly completely filled” value ([8]; Group 6: microfracture, monthly x3, granular to coarsely granular cartilage) was 7/10. For the same molecule, the “increase in defect fill percentages” value ([8]; no microfracture, monthly for three months, significant) was 48% and the necropsy findings ([8]; rabbit, in vivo) was “stimulation of osteophytes on the medial and lateral trochlear ridges”.
